Results reported in article PMC314469, “Protein Interaction Networks by Proteome Peptide Scanning” (PLoS Biology, 2004).

T1: amphyphisin SH3 (AMPH_HUMAN), P49418
T1 chain: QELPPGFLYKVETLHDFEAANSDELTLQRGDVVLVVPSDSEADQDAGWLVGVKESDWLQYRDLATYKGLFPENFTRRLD


Molecular target: T1, amphyphisin SH3 (AMPH_HUMAN), P49418
Assay: SPOT array
Work on TTRRPPRPPGSSRK [Q9C0H3 154-168] yielded a normalised SPOT signal, Boehringer light units (BLU); mean over the file's lines of this peptide of 3160.
TRSVLKRPERSQEE [P30304 268-281] gave a normalised SPOT signal, Boehringer light units (BLU); mean over the file's lines of this peptide of 89.1.
TSPTFRRPKTLRLR [P29316 42-55] was tested, and the normalised SPOT signal, Boehringer light units (BLU); mean over the file's lines of this peptide was 56.7.
TSFEPRRPPPLRPG [Q9P2S2 1586-1599] gave a normalised SPOT signal, Boehringer light units (BLU); mean over the file's lines of this peptide of 32.4.
TQPVLKRPRHVHSH [Q9BZH3 389-402] was tested, and the normalised SPOT signal, Boehringer light units (BLU); mean over the file's lines of this peptide was 46.6.
TRVQPRRPTKGTHR [Q96EK0 35-48] gave a normalised SPOT signal, Boehringer light units (BLU); mean over the file's lines of this peptide of 38.
For TTTPPTKPPSFNLH [Q99966 72-86], the normalised SPOT signal, Boehringer light units (BLU); mean over the file's lines of this peptide was 54.
TSAVLRRPQKGRLA [Q13135 548-561] gave a normalised SPOT signal, Boehringer light units (BLU); mean over the file's lines of this peptide of 84.9.
Binder TRDDPYRPAKPVPT [O14730 137-150] has a normalised SPOT signal, Boehringer light units (BLU); mean over the file's lines of this peptide of 4.8.
Binder TTVLIKRPDLKYQL [Q99767 658-671] has a normalised SPOT signal, Boehringer light units (BLU); mean over the file's lines of this peptide of 30.1.
TRPPPIRPPFSHPI [P10323 306-320] was tested, and the normalised SPOT signal, Boehringer light units (BLU); mean over the file's lines of this peptide was 804.
SFHSPRRPYASPLL [P57073 407-420] was tested, and the normalised SPOT signal, Boehringer light units (BLU); mean over the file's lines of this peptide was 71.
TREALSRPARTAPL [Q13424 330-343] showed a normalised SPOT signal, Boehringer light units (BLU); mean over the file's lines of this peptide of 440.
With TSAPPSRPPPPRAT [Q9UKN4 408-422] the normalised SPOT signal, Boehringer light units (BLU); mean over the file's lines of this peptide was 5540.
Work on SGGRPARPDRGPEP [Q92914 53-66] yielded a normalised SPOT signal, Boehringer light units (BLU); mean over the file's lines of this peptide of 1740.
Work on TRKGPKRPQQPNPP [Q16632 107-120] yielded a normalised SPOT signal, Boehringer light units (BLU); mean over the file's lines of this peptide of 46.7.
TSGSFRRPESPRPR [O15054 552-565] was tested, and the normalised SPOT signal, Boehringer light units (BLU); mean over the file's lines of this peptide was 57.4.
Work on TRSPPPRPPPPAIN [Q9BQL3 97-111] yielded a normalised SPOT signal, Boehringer light units (BLU); mean over the file's lines of this peptide of 1400.
TRPPPIRPPFSHPL [P58840 117-131] was tested, and the normalised SPOT signal, Boehringer light units (BLU); mean over the file's lines of this peptide was 567.
Work on TRKELERPIKVPVV [P82251 399-412] yielded a normalised SPOT signal, Boehringer light units (BLU); mean over the file's lines of this peptide of 0.
For AAVTLKRPPPYQWD [Q9NRJ4 1113-1126], the normalised SPOT signal, Boehringer light units (BLU); mean over the file's lines of this peptide was 42.1.
TRYSPYRPYRSVHQ [O60281 946-959] was tested, and the normalised SPOT signal, Boehringer light units (BLU); mean over the file's lines of this peptide was 1000.
Work on TQISLKRPRHRSVG [Q9P2Z0 180-193] yielded a normalised SPOT signal, Boehringer light units (BLU); mean over the file's lines of this peptide of 6.5.
TRGRPTRPPTRPPT [Q96F98 1-15] was tested, and the normalised SPOT signal, Boehringer light units (BLU); mean over the file's lines of this peptide was 913.
Binder TTVLIRRPDLRYQL [Q02410 746-759] has a normalised SPOT signal, Boehringer light units (BLU); mean over the file's lines of this peptide of 29.4.
In the case of TRESIVRPSRRGGI [Q14333 228-241], the normalised SPOT signal, Boehringer light units (BLU); mean over the file's lines of this peptide is reported as 1320.
TQSLPTRPPTFPPT [Q05707 817-831] showed a normalised SPOT signal, Boehringer light units (BLU); mean over the file's lines of this peptide of 78.8.
Work on TRWPPSRPPPPSPF [Q9NP08 321-335] yielded a normalised SPOT signal, Boehringer light units (BLU); mean over the file's lines of this peptide of 363.
In the case of TSWMPRRPSSPLKE [Q9H2L5 83-96], the normalised SPOT signal, Boehringer light units (BLU); mean over the file's lines of this peptide is reported as 36.5.
Work on TTVRPAKPPVVDRS [O95630 222-236] yielded a normalised SPOT signal, Boehringer light units (BLU); mean over the file's lines of this peptide of 34.9.
With TRPKPLKPPSDLSM [P33121 45-59] the normalised SPOT signal, Boehringer light units (BLU); mean over the file's lines of this peptide was 90.5.
TRRVLLRPEKRPPV [P34969 436-449] showed a normalised SPOT signal, Boehringer light units (BLU); mean over the file's lines of this peptide of 177.
TRTDPTRPIRTPVI [Q9ULT9 312-325] gave a normalised SPOT signal, Boehringer light units (BLU); mean over the file's lines of this peptide of 568.
With TTPPPGRPPAPSSE [Q96KN1 287-301] the normalised SPOT signal, Boehringer light units (BLU); mean over the file's lines of this peptide was 24.7.
TSPAPHRPPKRGPL [Q9UQD1 353-366] was tested, and the normalised SPOT signal, Boehringer light units (BLU); mean over the file's lines of this peptide was 220.
Binder SGATLKRPMEFEAA [Q9H9L7 3-16] has a normalised SPOT signal, Boehringer light units (BLU); mean over the file's lines of this peptide of 31.6.
TRYMFSRPFRKHGV [P46778 10-23] showed a normalised SPOT signal, Boehringer light units (BLU); mean over the file's lines of this peptide of 2180.
Binder TSLSLRRPPGPASQ [Q15477 130-143] has a normalised SPOT signal, Boehringer light units (BLU); mean over the file's lines of this peptide of 33.9.
For TSPAPHRPPKRVKA [Q9NRC7 337-350], the normalised SPOT signal, Boehringer light units (BLU); mean over the file's lines of this peptide was -0.
TSVPLARPLRTSEE [O94942 425-438] gave a normalised SPOT signal, Boehringer light units (BLU); mean over the file's lines of this peptide of 161.
TTKVIRRPRRGRMG [O75334 571-584] gave a normalised SPOT signal, Boehringer light units (BLU); mean over the file's lines of this peptide of 118.
With SEVPLKRPRLDKNS [Q9BZW3 294-307] the normalised SPOT signal, Boehringer light units (BLU); mean over the file's lines of this peptide was 45.5.

What follows are binders tested against endophilin SH3 (SH3G2_HUMAN), Q99962 (assay: SPOT array).
Binder TTRRPPRPPGSSRK [Q9C0H3 154-168] has a normalised SPOT signal, Boehringer light units (BLU); mean over the file's lines of this peptide of 11100.
TRSVLKRPERSQEE [P30304 268-281] gave a normalised SPOT signal, Boehringer light units (BLU); mean over the file's lines of this peptide of 54.1.
Binder TSPTFRRPKTLRLR [P29316 42-55] has a normalised SPOT signal, Boehringer light units (BLU); mean over the file's lines of this peptide of 54.7.
In the case of TSFEPRRPPPLRPG [Q9P2S2 1586-1599], the normalised SPOT signal, Boehringer light units (BLU); mean over the file's lines of this peptide is reported as 210.
TQPVLKRPRHVHSH [Q9BZH3 389-402] was tested, and the normalised SPOT signal, Boehringer light units (BLU); mean over the file's lines of this peptide was 60.5.
Binder TRVQPRRPTKGTHR [Q96EK0 35-48] has a normalised SPOT signal, Boehringer light units (BLU); mean over the file's lines of this peptide of 138.
For TTTPPTKPPSFNLH [Q99966 72-86], the normalised SPOT signal, Boehringer light units (BLU); mean over the file's lines of this peptide was 647.
Work on TSAVLRRPQKGRLA [Q13135 548-561] yielded a normalised SPOT signal, Boehringer light units (BLU); mean over the file's lines of this peptide of 138.
Work on TRDDPYRPAKPVPT [O14730 137-150] yielded a normalised SPOT signal, Boehringer light units (BLU); mean over the file's lines of this peptide of 68.1.
For TTVLIKRPDLKYQL [Q99767 658-671], the normalised SPOT signal, Boehringer light units (BLU); mean over the file's lines of this peptide was 74.4.
In the case of TRPPPIRPPFSHPI [P10323 306-320], the normalised SPOT signal, Boehringer light units (BLU); mean over the file's lines of this peptide is reported as 10400.
In the case of SFHSPRRPYASPLL [P57073 407-420], the normalised SPOT signal, Boehringer light units (BLU); mean over the file's lines of this peptide is reported as 1100.
In the case of TREALSRPARTAPL [Q13424 330-343], the normalised SPOT signal, Boehringer light units (BLU); mean over the file's lines of this peptide is reported as 216.
Work on TSAPPSRPPPPRAT [Q9UKN4 408-422] yielded a normalised SPOT signal, Boehringer light units (BLU); mean over the file's lines of this peptide of 14100.
Work on SGGRPARPDRGPEP [Q92914 53-66] yielded a normalised SPOT signal, Boehringer light units (BLU); mean over the file's lines of this peptide of 2500.
TRKGPKRPQQPNPP [Q16632 107-120] was tested, and the normalised SPOT signal, Boehringer light units (BLU); mean over the file's lines of this peptide was 2280.
TSGSFRRPESPRPR [O15054 552-565] was tested, and the normalised SPOT signal, Boehringer light units (BLU); mean over the file's lines of this peptide was 67.6.
TRSPPPRPPPPAIN [Q9BQL3 97-111] gave a normalised SPOT signal, Boehringer light units (BLU); mean over the file's lines of this peptide of 13300.
In the case of TRPPPIRPPFSHPL [P58840 117-131], the normalised SPOT signal, Boehringer light units (BLU); mean over the file's lines of this peptide is reported as 8780.
With TRKELERPIKVPVV [P82251 399-412] the normalised SPOT signal, Boehringer light units (BLU); mean over the file's lines of this peptide was 324.
For AAVTLKRPPPYQWD [Q9NRJ4 1113-1126], the normalised SPOT signal, Boehringer light units (BLU); mean over the file's lines of this peptide was 61.6.
TRYSPYRPYRSVHQ [O60281 946-959] showed a normalised SPOT signal, Boehringer light units (BLU); mean over the file's lines of this peptide of 913.
TQISLKRPRHRSVG [Q9P2Z0 180-193] was tested, and the normalised SPOT signal, Boehringer light units (BLU); mean over the file's lines of this peptide was 27.6.
TRGRPTRPPTRPPT [Q96F98 1-15] showed a normalised SPOT signal, Boehringer light units (BLU); mean over the file's lines of this peptide of 8360.
TTVLIRRPDLRYQL [Q02410 746-759] was tested, and the normalised SPOT signal, Boehringer light units (BLU); mean over the file's lines of this peptide was 16.2.
TRESIVRPSRRGGI [Q14333 228-241] showed a normalised SPOT signal, Boehringer light units (BLU); mean over the file's lines of this peptide of 89.5.
TQSLPTRPPTFPPT [Q05707 817-831] showed a normalised SPOT signal, Boehringer light units (BLU); mean over the file's lines of this peptide of 1190.
TRWPPSRPPPPSPF [Q9NP08 321-335] gave a normalised SPOT signal, Boehringer light units (BLU); mean over the file's lines of this peptide of 7730.
Work on TSWMPRRPSSPLKE [Q9H2L5 83-96] yielded a normalised SPOT signal, Boehringer light units (BLU); mean over the file's lines of this peptide of 684.
TTVRPAKPPVVDRS [O95630 222-236] was tested, and the normalised SPOT signal, Boehringer light units (BLU); mean over the file's lines of this peptide was 806.
TRPKPLKPPSDLSM [P33121 45-59] was tested, and the normalised SPOT signal, Boehringer light units (BLU); mean over the file's lines of this peptide was 451.
In the case of TRRVLLRPEKRPPV [P34969 436-449], the normalised SPOT signal, Boehringer light units (BLU); mean over the file's lines of this peptide is reported as 123.
TRTDPTRPIRTPVI [Q9ULT9 312-325] gave a normalised SPOT signal, Boehringer light units (BLU); mean over the file's lines of this peptide of 96.3.
In the case of TTPPPGRPPAPSSE [Q96KN1 287-301], the normalised SPOT signal, Boehringer light units (BLU); mean over the file's lines of this peptide is reported as 4930.
For TSPAPHRPPKRGPL [Q9UQD1 353-366], the normalised SPOT signal, Boehringer light units (BLU); mean over the file's lines of this peptide was 4010.
SGATLKRPMEFEAA [Q9H9L7 3-16] showed a normalised SPOT signal, Boehringer light units (BLU); mean over the file's lines of this peptide of 0.
With TRYMFSRPFRKHGV [P46778 10-23] the normalised SPOT signal, Boehringer light units (BLU); mean over the file's lines of this peptide was 534.
Work on TSLSLRRPPGPASQ [Q15477 130-143] yielded a normalised SPOT signal, Boehringer light units (BLU); mean over the file's lines of this peptide of 26.8.
TSPAPHRPPKRVKA [Q9NRC7 337-350] gave a normalised SPOT signal, Boehringer light units (BLU); mean over the file's lines of this peptide of 4.2.
TSVPLARPLRTSEE [O94942 425-438] was tested, and the normalised SPOT signal, Boehringer light units (BLU); mean over the file's lines of this peptide was 186.
TTKVIRRPRRGRMG [O75334 571-584] gave a normalised SPOT signal, Boehringer light units (BLU); mean over the file's lines of this peptide of 150.
In the case of SEVPLKRPRLDKNS [Q9BZW3 294-307], the normalised SPOT signal, Boehringer light units (BLU); mean over the file's lines of this peptide is reported as 65.5.
